Results from PMC11413795, “Milk-derived extracellular vesicles enable gut-to-tumor oral delivery of tumor-activated doxorubicin prodrugs” (Theranostics, 2024).
Peptide text beside a SMILES is read from it. * marks the point of attachment. Doxorubicin(3'-N) = COc1cccc2c1C(=O)c1c(O)c3c(c(O)c1C2=O)C[C@@](O)(C(=O)CO)C[C@@H]3O[C@H]1C[C@H](N*)[C@H](O)[C@H](C)O1

Key:
[1] = Biodistribution after oral administration, NIRF imaging of GI tract; set-up: species or system BALB/c mice; conditions: mouse
Experimental: All animal experiments were performed following the International Guide for the Care and Use of Laboratory Animals and were approved by the Korea Institute of Science and Technology. 7-week-old BALB/c mice (n = 3 per each time point) were used to monitor the in vivo biodistribution of mEVs. […] Fluorescence signals in the GI tract were monitored by NIRF imaging. Following the assessment of GI tract distribution, all mice were anesthetized using 2.5% isoflurane gas and dissected to extract their major organs (liver, lung, spleen, heart, and kidney) along with the GI tract, and blood for PK analysis. PK analysis was performed by measuring the fluorescence signal of FDX and mEVs present in the blood at each time point (20 min, 40 min, 1 h, 3 h, 6 h, and 24 h).

[2] = Systemic toxicity after repeated oral administration; format: in vivo, BALB/c mice; conditions: 10 mg/kg FDX or equivalent, three-day intervals, n = 5
Experimental: To evaluate the therapeutic efficacy of FDX@mEVs, all controls and FDX@mEVs (PBS, mEVs, FDX, and FDX@mEVs; an equivalent dose of 10 mg/kg of FDX dispersed in 100 μL of PBS) were orally administered to CT26 tumor-bearing mice when the average tumor size reached approximately 50 - 70 mm^3. The CT26 tumor-bearing mice were modeled in the same manner as the previous method by inoculating 1.5 x 10^6 cells into the left flank of 7-week-old BALB/c mice (BALB/cAnNCrlOri). The six-repeated administration was conducted every three days, and tumor sizes and body weights were measured every two days. All subjects were sacrificed three days after the last administration, and blood, major organs, and tumor tissues were collected for the following analysis.
Systemic toxicity of FDX@mEVs was assessed by analyzing hematological parameters and histological assay of major organs. To assess liver damage by FDX@mEVs, AST, and ALT levels were analyzed. In addition, BUN and creatinine levels were also evaluated to confirm renal toxicity. Subsequently, all major organs were used for H&E staining to verify the histological damage of FDX@mEVs. H&E staining was performed according to the same protocol used in our previous study. Briefly, all sections were incubated in Hematoxylin solution for 5 min at RT. All incubated tissue sections were washed using tap water for 3 min. […]

Compound: COc1cccc2c1C(=O)c1c(O)c3c(c(O)c1C2=O)C[C@@](O)(C(=O)CO)C[C@@H]3O[C@H]1C[C@H](NC(=O)CNC(=O)[C@H](CCCNC(=N)N)NC(=O)[C@H](CCCNC(=N)N)NC(=O)[C@H](Cc2ccccc2)NC(C)=O)[C@H](O)[C@H](C)O1 [FDX, FRRG-DOX] (Ac-FRRG-{Doxorubicin(3'-N)})
- in vivo clearance time after oral administration [1]: ≤ 3 h
- body weight during repeated oral administration compared to PBS group [2]: no significant changes
